For assay [1], the target named is His-GST-tagged UBA7(U1) chimera (bovine | human) (UniProt P22314). The assay can be described thus: BLI.
Assay [2] addresses His-GST-tagged bovine UBA7(eCCL) (bovine). Nature of the assay: BLI.
The target of assay [3] is bovine UBA7 (bovine). Nature of the assay: SEC-MALS.
Assay [4] concerns the target bovine UBA7 (bovine).
Assay [5] addresses His-GST-tagged bovine UBA7(C597A) (bovine). The assay can be described thus: BLI. Background: BLI is a label-free optical method that tracks binding on a fibre tip over time.

His-GST-tagged UBA7(U1) chimera (bovine | human), sequence (P22314 whole entry, change not shown): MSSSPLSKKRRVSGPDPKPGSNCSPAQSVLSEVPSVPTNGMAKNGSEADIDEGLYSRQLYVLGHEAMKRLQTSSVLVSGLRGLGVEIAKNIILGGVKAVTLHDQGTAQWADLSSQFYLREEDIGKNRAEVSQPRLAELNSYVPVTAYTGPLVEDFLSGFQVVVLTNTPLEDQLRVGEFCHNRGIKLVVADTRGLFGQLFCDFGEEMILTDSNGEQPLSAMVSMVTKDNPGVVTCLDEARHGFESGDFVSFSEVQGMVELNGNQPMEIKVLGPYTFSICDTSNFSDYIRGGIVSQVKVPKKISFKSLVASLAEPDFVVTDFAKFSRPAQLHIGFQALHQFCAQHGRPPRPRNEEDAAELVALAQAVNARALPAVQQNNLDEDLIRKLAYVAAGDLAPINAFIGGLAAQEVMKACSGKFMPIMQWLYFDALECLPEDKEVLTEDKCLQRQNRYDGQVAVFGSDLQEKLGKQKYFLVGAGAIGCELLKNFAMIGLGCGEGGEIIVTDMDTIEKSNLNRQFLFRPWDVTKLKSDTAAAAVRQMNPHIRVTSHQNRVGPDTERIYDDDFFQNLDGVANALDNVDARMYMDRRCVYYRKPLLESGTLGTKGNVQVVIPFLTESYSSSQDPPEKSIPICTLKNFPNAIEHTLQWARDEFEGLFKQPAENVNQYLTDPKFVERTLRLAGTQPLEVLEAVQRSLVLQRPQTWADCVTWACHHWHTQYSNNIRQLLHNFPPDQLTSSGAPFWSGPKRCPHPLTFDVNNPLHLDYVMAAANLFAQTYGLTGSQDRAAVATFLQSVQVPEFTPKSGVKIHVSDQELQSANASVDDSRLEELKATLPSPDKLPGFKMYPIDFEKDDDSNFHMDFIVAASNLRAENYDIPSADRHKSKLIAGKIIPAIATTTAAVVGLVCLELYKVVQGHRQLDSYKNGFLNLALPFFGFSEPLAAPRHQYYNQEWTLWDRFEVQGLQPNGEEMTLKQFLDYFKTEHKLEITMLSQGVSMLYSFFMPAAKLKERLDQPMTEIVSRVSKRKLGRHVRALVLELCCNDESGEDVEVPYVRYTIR

For the substance “bovine UBE2L6(C86A) (from UniProt A5PJC4 1-153) (enzyme)”, the results for the dissociation constant Kd in assay [1] and in assay [2] were 48 µM and 4 µM, respectively.

The substance “bovine UBE2L6 (from UniProt A5PJC4 1-153) (enzyme)” registered a stoichiometry N with bovine UBA7 (bovine) [3] of 1. Besides, the KM of disulfide complex formation (UBA7 titrated with UBE2L6, SDS-PAGE kinetics) in the assay with bovine UBA7 (bovine) [4] was 1.3 µM. Also, the Kd in assay [5] was 1.2 µM.

Broadly, the Kd is the equilibrium constant for the complex coming apart. A low value points to higher affinity. Usually stoichiometry N stands for the number of molecules, sites or subunits per partner or assembly.

The values above are taken from paper doi:10.1101/2024.11.07.622398.
